B1: 5-hydroxytryptamine receptor 4 (Mus musculus), P97288 (parent)
chain: MDKLDANVSSNEGFRSVEKVVLLTFLAVVILMAILGNLLVMVAVCRDRQLRKIKTNYFIVSLAFADLLVSVLVMPFGAIELVQDIWAYGEMFCLVRTSLDVLLTTASIFHLCCISLDRYYAICCQPLVYRNKMTPLRIALMLGGCWVLPMFISFLPIMQGWNNIGIVDVIEKRKFSHNSNSTWCVFMVNKPYAITCSVVAFYIPFLLMVLAYYRIYVTAKEHAQQIQMLQRAGATSESRPQPADQHSTHRMRTETKAAKTLCVIMGCFCFCWAPFFVTNIVDPFIDYTVPEQVWTAFLWLGYINSGLNPFLYAFLNKSFRRAFLIILCCDDERYKRPPILGQTVPCSTTTINGSTHVLRDTVECGGQWESRCHLTATSPLVAAQPSDT

The variants in assay [1] derive from B1. The conditions noted are these: with grk5_human GRK5, P34947.
In assay [2] the parent is B1. The conditions noted are these: with grk5_human GRK5, P34947. The source holds these as a separate data set.

grk5_human GRK5, P34947, sequence (P34947 whole entry, looked up): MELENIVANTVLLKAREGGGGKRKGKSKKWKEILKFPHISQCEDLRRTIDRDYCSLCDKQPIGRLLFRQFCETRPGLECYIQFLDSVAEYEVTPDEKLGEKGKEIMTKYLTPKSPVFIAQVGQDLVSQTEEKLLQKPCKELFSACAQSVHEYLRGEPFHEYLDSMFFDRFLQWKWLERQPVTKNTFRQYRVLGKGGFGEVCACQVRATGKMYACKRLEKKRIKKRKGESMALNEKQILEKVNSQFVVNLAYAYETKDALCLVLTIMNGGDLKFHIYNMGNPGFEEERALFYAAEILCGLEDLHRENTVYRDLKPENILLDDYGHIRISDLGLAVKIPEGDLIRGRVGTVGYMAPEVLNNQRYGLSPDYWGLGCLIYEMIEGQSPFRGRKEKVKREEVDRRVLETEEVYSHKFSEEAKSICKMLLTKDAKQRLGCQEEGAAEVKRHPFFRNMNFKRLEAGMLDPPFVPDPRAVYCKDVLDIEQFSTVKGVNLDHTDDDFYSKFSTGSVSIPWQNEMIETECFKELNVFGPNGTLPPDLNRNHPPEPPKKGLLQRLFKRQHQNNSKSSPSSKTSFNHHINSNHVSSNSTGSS

D331A: the “effect of a mutation on the interaction” value is listed as “decreasing interaction” in the assay with grk5_human GRK5, P34947 [1] and “disrupting interaction” with grk5_human GRK5, P34947 [2].

E332A: the “effect of a mutation on the interaction” value with grk5_human GRK5, P34947 [1] was “decreasing interaction”; with grk5_human GRK5, P34947 [2], “disrupting interaction”.

D330A: the “effect of a mutation on the interaction” value is “decreasing interaction” with grk5_human GRK5, P34947 [1] and “disrupting interaction” with grk5_human GRK5, P34947 [2].

These data come from IntAct's records for PubMed 19661922.
